A protein production outcome set (Wang et al. 2014)

Assay: label from the status in PepcDB records

Row | Sequence | protein production
1 | MAGLSGAQIPDGEFTAVVYRLIRNARYAEAVQLLGGELQRSPRSRAGLSLLGYCYYRLQEFALAAECYEQLGQLHPELEQYRLYQAQALYKACLYAEATRVAFLLLDNPAYHSRVLHLQAAIKYSEGDLPGSRSLVEQLPSREGGEESGGENETDGQINLGCLLYKEGQYEAACSKFFAALQASGYQPDLSYNLALAYYSSRQYASALKHIAEIIERGIRQHPELGVGMTTEGIDVRSVGNTLVLHQTALVEAFNLKAAIEYQLRNYEAAQEALTDMPPRAEEELDPVTLHNQALMNMDARPTEGFEKLQFLLQQNPFPPETFGNLLLLYCKYEYFDLAADVLAENAHLIYKFLTPYLYDFLDAVITCQTAPEEAFIKLDGLAGMLTEVLRKLTIQVQEARHNRDDEAIKKAVNEYDETMEKYIPVLMAQAKIYWNLENYPMVEKIFRKSVEFCNDHDVWKLNVAHVLFMQENKYKEAIGFYEPIVKKHYDNILNVSAIVLANLCVSYIMTSQNEEAEELMRKIEKEEEQLSYDDPDKKMYHLCIVNLVIGTLYCAKGNYDFGISRVIKSLEPYNKKLGTDTWYYAKRCFLSLLENMSKHTIMLRDSVIQECVQFLEHCELHGRNIPAVIEQPLEEERMHVGKNTVTYESRQLKALIYEIIGWNI | failed
2 | MAGLVQKFKQMWTPPEDEYDYDFEEMDMDDEEVMDEISSSSYEEEEAYQEPQRESRRSSAPQSGNKVVNIHAAAQLQVVLFKPERFGDETRSVADELIKMHTVVLNLENTSKDVSRRILDFLSGVAYANNGKIKRVSTATFIITPYNVDLTGDDLMDEIESSSMYL | failed
3 | MAGSSTSSSEACTDPYLRCAFNGAALTALGISHSALLAHSPQGCEYLVNNAFASQECDYMETMTLCTKLCVDEIVHGGEDILARTIREVKDLPISALFVLSACGPEIVGDDIVGVCEALQPEVKFRLVPIESAGFRGSQYDGIDIAMDTILKKLVKDDVEKIPGSVCLVAPHANANPTWPADLAWVKQVLFRMGIKVVATLTHRTPIAEIENIASAETSLLLSHDAGQKAADYLSATFGIEQVCKGIPLPIGMTNTQRWLTALGDRFDILKTAEEIVAEGERMVMATCRRKWPMARFMYRTPAAIVADATVGIPLVRFVTEEMEMTPELVALYTSHRSVWELLEGELKSLGLNPKVVYGTDVYKTRKSLQEVRPRVVFGSTIERHASEGLPVAYVVEVVRMMRQFRMINREYFGYTGILNLLECVQNEWVMGWRSKERRYEAKW | failed
4 | MAHGMPTQGKVTISVDEYSSNPTQALTHYNINQSRFQPPHVHMVDPISYDTPKPGGHTRFVCVSDTHSRTDGIQMPYGDVLLHTGDFTELGLPSEVKKFNDWLGSLPYEFKVVIAGNHELTFDKDFMTELVKQDYYRFPSVSKLKPKDFDNVQSLLTNCVYLQDSDVTVKGFRIYGTPWTPWFNGWGFNLPRGQSLLDKWNLIPEGVDILMTHGPPLGFRDWVPKELQRVGCVELLNTVQRRVRPKLHVFGGIHEGYGIMTDGYTTFINASTCTVSFQPTNPPIVFDLPNPTSS | failed
5 | MAHHHHHHMADQNPDLKVEEALKGADIKLLLIDFDGTLFVDKDIKVPSENIDAIKEAIEKGYMVSICTGRSKVGILSAFGEENLKKMNFYGMPGVYINGTIVYDQIGYTLLDETIETDVYAELISYLVEKNLVNQTIFHRGESNYVTEDNKYADFLQKMYSENRSIIIRHNEMLKYRTMNKLMIVLDPSESKTVIGNLKQKFKNKLTIFTTYNGHAEVTKLGHDKYTGINYLLKHYNISNDQVLVVGDAENDIAMLSNFKYSFAVANATDSAKSHAKCVLPVSHREGAVAYLLKKVFDLKK | not failed
6 | MAHLLEKTRKITSILKRSEEQLQDELPYNAITRQLADIIHCNACIINSKGRLLGYFMRYKTNTDRVEQFFQTKIFPDDYVQGANMIYETEANLPVEHDMSIFPIESRDDFPDGLTTIAPIHVSGIRLGSLIIWRNDKKFEDEDLVLVEIASTVVGIQLLNFQREEDEKNIRRRTAVTMAVNTLSYSELRAVSAILGELNGNEGKLTASVIADRIGITRSVIVNALRKLESAGIIESRSLGMKGTYLKVLISDIFEEVKKRDY | failed
7 | MAHRRDRGLLGIWGDLVLTSVFIAAVSLALFWMAAFTLWWQMHAWRTPEVLASTRFSRPDGGEGLSFSLLLPARHEQAVLDHTIQRLLESSHTDFEIIVIVGHDDPETTEVARKAAARDERVRVVVDTHEKKNKPKAMNTALPHCRGDVVGVFDAEDQVHPELLAHVDHAFRSTGADVVQGGVQLINFNSSWYSLRNCLEYFFWFRSRLHLHAQKGFIPLGGNTVFVRTDVLKEADGWDPDCLAEDCDLGVRLSSVGKKVVVAYDSDMVTREETPGSLMSLLKQRTRWNQGFLQVYRKKDWKQLPGFGQRLLARYTLMTPFLQAISGVIIPLNAAVALFLDVPVGIAFITFLPAVTAFVTFVFEVVGLHDFGKQYGLRVRSVHYLKLIVGGPFYQVLLAGAAIRAVWREQRGRNDWELTSHVGAHLTEVIREDVPA | failed
8 | MAIGIAANRLELLQIADAVAREKGIEKEVVIEAIEDALQKAARARYGAEHDIRVKIDPKTGETTQKRVIEVVSDDAELEGEIGKMPFSIAKRTWRDAEIGKVYEEVLPPFEIGRVQTQMARQVVMHKVREAERERQYDEYKDRVGEIVNGSVKRVEYGNVIVDLGRGEGIMRRDQSIPRENFNVGDRIRAYIYDVRRETKGPQIMLSRAHGGFMAKLFAQEVPEVYDGVIEIRAVARDPGSRAKMAVISNDGSIDPVGACVGMRGSRVQAVVAELQGEKIDIIQWSEDEATFIVNALAPAEVSKVVMDEEDERVEVVVPDEQLSLAIGRRGQNVRLASQLTGWQIDIMTESQESERRQREFAERTALFQEALDVDEVIAQLLVTEGFAAVEDVAYVEPHEIASIEGFDEETAEELQTRAREFLEKEAAELDAKRKALGVEDELLTIEGVTLAMAVALGEGDVKSIEDLAGLVPDDMRGWFENKGGERVREPGILESFNLSPEDAEALIMRARIAMGWVEAPPEPEPEPEFEEESSAEGDVVAEAEEEA | failed
9 | MAIPGNMWIYDDGGALIKGGCDVADREFSIEFKGFHHNLSIPTDHATGKPTGTRQHSPMIIVKEFDYSSPYLYKAVATGQNLKSAEIKWYKISDAGQEVEYFNMLLEGVRIVSISPTMASPEDKNNNHLESVELRYEKITWKHCDGNIIFTDAWNERQTA | not failed
10 | MAIPSGATGKEPFLPRTLTVLREGYDGGTFFKDLAAGLTVGIVALPLAMAFAIASGTTPERGLFTAIVAGFLISLLGGSRYQIGGPTGAFVIIIFNVIMKHGYDGLVVTTLLAGAMLLVFGLCRFGALIKYIPYPVTTGFTAGIAVLIFSQQVKDFLGLSMQSVPPDFFEKWQAYIHNAATFDPATCGIAFLALGAIILTRKTIPRIPGPVVGVVLASLTVWALGLDVETIGSRFGGIPTELPTFTLPTVTLERVRQLLPDAMTIALLAGIESLLSCVVADGMTGDKHNSNVELAAQGAANIASVMFGGIPATGAIARTVTNIRSGGRTPVAGMIHAAVLVGFILYLAPLASFIPLASLAAVLMVVAWDMSEMHKFLRLLHAPKSDVLVMCLTFALTVVIDLTVAVYVGVMLASLLFMRRMSEVTQICTCLDGEATKVQGRETAELDVPEGVKVYEIDGPFFFGVADRFQNVLAALDRQPEVFILRMRKVSTLDSTAVNALEVFWRKCRSDGTQLLLSGVRETMRTTLRRMGTLSLIGEGNICENIDAALARAGQVLAERREAEDRPQ | failed
11 | MAISVIMSVYNERPEQVQQAVDSILKQTYLPREFVIVLDNPERSDLKDLLMDYDCRVEMIKLVCNPENLGLAASLNKAIELASSELIARMDADDISVTNRLEVELEALKTRDLDLISGNITYLDEQDEVVGEKSAIPEAEPLIQKILPYGSTIIHPTVLMRKTAVQQVGGYRLLPTAEDYDLWLRLLANGFKIGSINRRVLNYRLRGNSMTSDAWKTYLVSRYIQQLYAERKRTGADSFGRGMSALTDKINDVRAQSTFNRGQKYFTMAMASMRKRKLGQALAALVRAMVTSPDNCYYVINYLRLRTIWSVNGRRYRQQPSD | failed
12 | MAIVLLVLHVCTGLRGSPVSGRVRMAVDSGIYLAPCSNNDAQEHLKRTVINGVDRDDYGQYTNVGFGDSVSIWGVKGGNESHWQDIDAGDYLFFYTGDETYSQVAEVLATDQNEGLAEHLWPGFEDTWEFIIYLNEPIPVNIDSNEIADYAGYKQNYILGFQSLRGSAVDEINDEYGSIEGYINANRTDGNHIQTSGGSQDPDEGDDSVVDEVLDEADRDEEAYANIARQLEEVGQVVFYGPPGTGKTYNAQQFARWWLHNLQSEPRESQVRSVTFHPSYTYEDFIEGLTANATENSVSYDIKPGKFKAICEDARVAYQETGPNEEPPRYVLLIDEINRGNLAQIFGETITLLEEDKRGTLHVDLAHSGGSFTIPPNLYVIGTMNTADRSVALVDAALRRRFRFIDFPPDYGVARSRFGFDTEYDLTSAARGERSDLEQLQALSIQAVEQLNETIIELPDLGKGKQIGHSYLLVDPDDEQALVDAWRYEILPLLEEYFYGQLSRIRQELFNQNGDSLVDWEREQIKDFDPETLRESLQAIVNAGLEHHHHHH | failed
13 | MAKDKRISLLKVTSMVIIINLLSKITGFIRDFITASKFGTSVSADAFSMSSVVPNIIFAILGAAIVNTFVPIFNDVIVNKGEKRAFKFSNNVITVLTLLSIILTLLGEIFCPQFVKLIAPDFHGYKYLLTIKLTRIFLLIIIVNTWVFLSTAILQAKEHFLIPSLIGIPYNLLVIVYLLFFSSKYGVLGLTEVIVFAMFVQFLIHVPSLARMKYRYKPEFNISDGYLKSMVVLLIPILLGTSVQQITSLFNGRFSSSLETGSVAALSYASRLNSLVMDIFVISIVTVIYPKMTKLSSENKIGELIESFNISIRSITIILFPIITIILIESVPIVKILFQRDAFGNKSTLMTSTALFYYIIGIIAAGLREVLCRMFYALKDTRTPMINSAITVLVNVVLAYYLKDVLRLGGIALASSIAAYVSSILLFIKLNSKLKNINYRKTIGVTIKVIFASIGMGIFLKVLYQIVGQALLKKAIIIEIIGFGGITLIALLIYMLILYLMKVEEINMVSAFLYKKIKRG | failed
14 | MAKDKTSRKAPMGSGRDALMQAFREAQRPLRLDMLLRILGLHRKEKRTLEESLEALQAEGRILRLRGGAWGLTDHMKMVTGTLQVQRTGMGFVLPEDRRRTDIYVHPTQMGEAWHGDKVVVVLLPGGRGRNPEGRIVRILERGLKEMPARVVKRMGRQGLLCRAADARIKVHFLVDVTGLEGKPQKDDILVVSPGERVEDGLWAATAVRHLGSEDDVSVQERLVKINHGVPTEFPVPVLEEAATLPPAPGGGDFADRIDLRHMEFVTIDGARARDFDDAICVEEQGKGWRLWVAIADVSHYVRPGSAMDREALERSNSYYFPQSVEPMLPEALSNGLCSLNPRVPRLAMVAEIYFFGEGSPGKCKFYPAVIESKARLTYGQVNRALLLGDEEERLVLRPVLPMLEQAEKLARVLHQRRRERGSLDFDLPEPEIAFNIYGETVDIRRKVRHFGHQIVEEFMIAANEAVARFLTEKEADFLYRVHPEPEPEKLSALFKVLAGTDIAQGLPREASAGALQTVLQKAHGSAQEFLISRLTLRTMMQARYSPEHEGHFGLASACYCHFTSPIRRYADLVVHRALKRALGGDPGPTPAGGKLVAIADQLSQHERKAMEAEREILKRLTVLLLRSRVGETLTGVISSILDFGFFVELNEVLADGMVRLSSLDDDYYAFIPERQELRGERTGRTFRLGQQVKVRLADVNVGRLEVNLELVREEGDDTPVPTRRRSAASGRDGSGRDGSGRGGRGRSRHDATPRVKASPDASPEVSADGDMPDGDRLPPWIRAATEEDDPRDTTRTRRRRDDDASSRDGGDRRRGRSRNEGARGAGNPARGKAPRDGAGGDRKKGDGRDGKDGQAGGKPAGKGQSRKGKASSHRKGQGRVKKSDE | failed
15 | MAKGNKIPLTFHTYQDAATGTEVVRLTPPDVICHRNYFYQKCFFNDGSKLLFGAAFDGPWNYYLLDLKEQNATQLTEGKGDNTFGGFLSPNDDALYYVKNTRNLMRVDLTTLEEKTIYQVPDDWVGYGTWVANSDCTKMVGIEIKKEDWKPLTDWKKFQEFYFTNPCCRLIRVDLVTGEAETILQENQWLGHPIYRPGDDNTVAFCHEGPHDLVDARMWFINEDGTNMRKVKEHAEGESCTHEFWVPDGSAMIYVSYLKDDTNRYIRSIDPVTLEDRQLRVMPPCSHLMSNYDGTLLVGDGSDAPVDVQDDGGYKIENDPFLYVFNLKTGKEHRIAQHNTSWEVLEGDRQVTHPHPSFTPDNKQVLFTSDVDGKPALYLAKVPDSVWNLEHHHHHH | not failed
